Assay results published in doi:10.1101/108647.
Where two headings read alike, the source gives them in different places.

How the values were obtained:
[1] = target: T1, HisFlag-Mlh1 (MutLγ subunit);Mlh3 (MutLγ subunit) (Saccharomyces cerevisiae (S288c, …, UniProt P38920;Q12083 1-769;1-715, |)); assay: FeBABE footprinting
T1 sequence 1: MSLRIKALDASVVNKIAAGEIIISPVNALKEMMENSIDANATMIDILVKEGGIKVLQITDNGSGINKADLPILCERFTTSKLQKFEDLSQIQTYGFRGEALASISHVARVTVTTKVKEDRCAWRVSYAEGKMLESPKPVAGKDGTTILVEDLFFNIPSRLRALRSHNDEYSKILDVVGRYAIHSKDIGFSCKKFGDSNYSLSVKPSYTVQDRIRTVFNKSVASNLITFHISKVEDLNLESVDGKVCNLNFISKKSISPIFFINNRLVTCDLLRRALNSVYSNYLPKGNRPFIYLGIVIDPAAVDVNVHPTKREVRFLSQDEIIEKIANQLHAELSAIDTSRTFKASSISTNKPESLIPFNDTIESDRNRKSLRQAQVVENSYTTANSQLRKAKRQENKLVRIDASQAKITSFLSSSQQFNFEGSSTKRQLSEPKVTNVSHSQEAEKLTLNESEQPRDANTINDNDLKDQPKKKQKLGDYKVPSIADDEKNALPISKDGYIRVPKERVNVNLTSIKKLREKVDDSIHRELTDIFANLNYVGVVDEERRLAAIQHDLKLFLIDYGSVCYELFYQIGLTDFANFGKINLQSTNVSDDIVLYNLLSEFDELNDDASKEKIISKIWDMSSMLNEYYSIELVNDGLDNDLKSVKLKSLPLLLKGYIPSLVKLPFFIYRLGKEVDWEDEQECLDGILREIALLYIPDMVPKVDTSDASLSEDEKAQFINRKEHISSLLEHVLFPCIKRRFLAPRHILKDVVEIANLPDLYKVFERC
T1 sequence 2: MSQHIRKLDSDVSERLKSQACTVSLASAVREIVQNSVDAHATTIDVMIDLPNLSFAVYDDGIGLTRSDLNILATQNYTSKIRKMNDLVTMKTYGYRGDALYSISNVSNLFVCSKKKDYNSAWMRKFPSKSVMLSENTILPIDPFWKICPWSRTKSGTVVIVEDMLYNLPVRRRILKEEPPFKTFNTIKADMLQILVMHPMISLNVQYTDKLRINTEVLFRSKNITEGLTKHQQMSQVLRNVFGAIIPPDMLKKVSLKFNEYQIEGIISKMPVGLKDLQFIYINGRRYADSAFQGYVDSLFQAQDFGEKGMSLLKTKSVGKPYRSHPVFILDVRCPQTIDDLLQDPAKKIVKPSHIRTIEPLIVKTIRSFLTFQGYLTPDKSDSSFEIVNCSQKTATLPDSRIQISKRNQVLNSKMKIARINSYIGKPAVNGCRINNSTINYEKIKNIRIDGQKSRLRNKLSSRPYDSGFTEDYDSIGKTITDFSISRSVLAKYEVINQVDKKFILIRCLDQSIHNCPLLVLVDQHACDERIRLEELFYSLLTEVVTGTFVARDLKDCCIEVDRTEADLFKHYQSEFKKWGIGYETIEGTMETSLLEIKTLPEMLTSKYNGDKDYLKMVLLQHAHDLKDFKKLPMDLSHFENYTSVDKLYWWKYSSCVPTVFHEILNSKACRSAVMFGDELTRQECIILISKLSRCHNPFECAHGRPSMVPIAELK

[2] = target: T2, Mlh1 (untagged);HisFlag-Mlh3 (Saccharomyces cerevisiae (S288c, …, UniProt P38920;Q12083 1-769;1-715, |)); assay: FeBABE footprinting
T2 sequence 1: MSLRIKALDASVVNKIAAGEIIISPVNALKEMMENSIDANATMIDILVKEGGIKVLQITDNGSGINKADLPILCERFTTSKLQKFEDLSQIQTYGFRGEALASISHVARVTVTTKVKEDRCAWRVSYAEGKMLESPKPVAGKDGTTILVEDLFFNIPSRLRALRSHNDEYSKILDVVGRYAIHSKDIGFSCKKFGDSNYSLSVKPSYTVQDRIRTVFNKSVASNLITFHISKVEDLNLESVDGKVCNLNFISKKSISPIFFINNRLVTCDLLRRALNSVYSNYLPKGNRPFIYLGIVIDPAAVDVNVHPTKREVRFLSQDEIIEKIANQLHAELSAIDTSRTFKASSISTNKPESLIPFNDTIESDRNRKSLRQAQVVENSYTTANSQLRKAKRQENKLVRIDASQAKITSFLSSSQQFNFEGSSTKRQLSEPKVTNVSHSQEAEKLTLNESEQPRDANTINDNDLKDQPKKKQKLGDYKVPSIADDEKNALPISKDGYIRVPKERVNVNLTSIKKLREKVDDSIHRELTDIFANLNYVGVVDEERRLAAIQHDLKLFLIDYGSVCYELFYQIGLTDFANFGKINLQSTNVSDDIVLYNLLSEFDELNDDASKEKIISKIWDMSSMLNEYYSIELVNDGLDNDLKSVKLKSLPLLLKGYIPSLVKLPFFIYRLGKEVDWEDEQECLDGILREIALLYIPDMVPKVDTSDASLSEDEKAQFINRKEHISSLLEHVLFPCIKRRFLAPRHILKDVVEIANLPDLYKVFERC
T2 sequence 2: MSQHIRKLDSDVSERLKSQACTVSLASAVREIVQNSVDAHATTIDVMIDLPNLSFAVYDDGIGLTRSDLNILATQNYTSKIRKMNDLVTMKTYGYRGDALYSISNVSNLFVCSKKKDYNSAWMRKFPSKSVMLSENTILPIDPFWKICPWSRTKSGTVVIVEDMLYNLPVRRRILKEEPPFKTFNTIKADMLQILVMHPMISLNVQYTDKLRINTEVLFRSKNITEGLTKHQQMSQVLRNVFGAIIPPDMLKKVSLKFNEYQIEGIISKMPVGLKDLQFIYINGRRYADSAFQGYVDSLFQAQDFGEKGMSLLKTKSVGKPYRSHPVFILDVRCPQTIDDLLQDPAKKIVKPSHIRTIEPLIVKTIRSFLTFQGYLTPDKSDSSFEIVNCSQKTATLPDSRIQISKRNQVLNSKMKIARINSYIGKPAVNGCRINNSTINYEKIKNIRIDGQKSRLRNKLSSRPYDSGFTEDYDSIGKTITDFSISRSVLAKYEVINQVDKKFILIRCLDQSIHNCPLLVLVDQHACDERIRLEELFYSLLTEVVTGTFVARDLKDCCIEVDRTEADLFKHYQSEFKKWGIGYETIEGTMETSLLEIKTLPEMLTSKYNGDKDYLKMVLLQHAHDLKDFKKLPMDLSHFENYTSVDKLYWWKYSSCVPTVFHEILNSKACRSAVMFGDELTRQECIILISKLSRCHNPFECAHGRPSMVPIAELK

[3] = target: T1, HisFlag-Mlh1 (MutLγ subunit);Mlh3 …; assay: pull-down
[4] = target: T1, HisFlag-Mlh1 (MutLγ subunit);Mlh3 …; assay: FeBABE footprinting; remark: listed apart in the source
[5] = target: T2, Mlh1 (untagged);HisFlag-Mlh3; assay: FeBABE footprinting; remark: listed apart in the source

B1: HJ+1 FeBABE (cb256/351/369/098) (structured_DNA)
DNA 1: CTAGTATAGAGCCGGCGCGCCATGTCTAGATAGCGTTAGGTCTGCCGAATAGTACTACTCGGATCCCGAGCGAACCACGC
DNA 2: GCGTGGTTCGCTCGGGATCCGAGTAGTACTATTCGGCAGAGGATTCGAATAGGCCTAATCGAATTCCGCCATCGATGCAC
DNA 3: GTGCATCGATGGCGGAATTCGATTAGGCCTATTCGAATCCAGACGCGAGTAGATCTTCACGGTACCCGCGGTTACCCGTG
DNA 4: CACGGGTAACCGCGGGTACCGTGAAGATCTACTCGCGTCTCCTAACGCTATCTAGACATGGCGCGCCGGCTCTATACTAG
modifications: phosphorothioate-FeBABE on strands 2 and 3, segment 1 (nearest the center); 3'-biotin on strand 1
B1: binds [1]; binds [2].

B2: HJ80-biotin (cb256/096/097/098) (structured_DNA)
DNA 1: CTAGTATAGAGCCGGCGCGCCATGTCTAGATAGCGTTAGGTCTGCCGAATAGTACTACTCGGATCCCGAGCGAACCACGC
DNA 2: GCGTGGTTCGCTCGGGATCCGAGTAGTACTATTCGGCAGAGGATTCGAATAGGCCTAATCGAATTCCGCCATCGATGCAC
DNA 3: GTGCATCGATGGCGGAATTCGATTAGGCCTATTCGAATCCAGACGCGAGTAGATCTTCACGGTACCCGCGGTTACCCGTG
DNA 4: CACGGGTAACCGCGGGTACCGTGAAGATCTACTCGCGTCTCCTAACGCTATCTAGACATGGCGCGCCGGCTCTATACTAG
modifications: 3'-biotin on strand 1
B2: binds [3].

B3: dsDNA80-biotin (cb256/cb100) (dsDNA)
DNA 1: CTAGTATAGAGCCGGCGCGCCATGTCTAGATAGCGTTAGGTCTGCCGAATAGTACTACTCGGATCCCGAGCGAACCACGC
DNA 2: GCGTGGTTCGCTCGGGATCCGAGTAGTACTATTCGGCAGACCTAACGCTATCTAGACATGGCGCGCCGGCTCTATACTAG
modifications: 3'-biotin on strand 1
B3: no binding [3].

B4: ssDNA+ FeBABE (cb361) (ssDNA)
DNA: TTTTTTTTTTTTTTTTTTTTTTTTTTTTTTTTTTTTTTTTTTTTTTTTTTTTTTTTTTTTTTTTTTTTTTTTTTTTTTTT
modifications: phosphorothioate-FeBABE after every 8 nt; 3'-biotin
B4: binds [4]; binds [5].

B5: ssDNA80-biotin (cb316) (ssDNA)
DNA: TTTTTTTTTTTTTTTTTTTTTTTTTTTTTTTTTTTTTTTTTTTTTTTTTTTTTTTTTTTTTTTTTTTTTTTTTTTTTTTT
modifications: 3'-biotin
B5: binds [3].
